Assays:
[1] = molecular target: T1, h-β2 appendage (residues 700–937), 6xHis (human, UniProt P63010 700-937); experiment: ITC
T1 sequence (looked up): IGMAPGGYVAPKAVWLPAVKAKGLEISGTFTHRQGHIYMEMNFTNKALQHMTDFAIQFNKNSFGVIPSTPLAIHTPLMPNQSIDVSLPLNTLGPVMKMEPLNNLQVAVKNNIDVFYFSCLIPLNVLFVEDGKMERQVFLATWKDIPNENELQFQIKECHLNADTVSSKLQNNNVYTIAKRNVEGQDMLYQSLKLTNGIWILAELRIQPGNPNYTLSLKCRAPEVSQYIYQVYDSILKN

[2] = molecular target: T2, h-γ appendage (residues 704–822), 6xHis (human, UniProt O43747 704-822); experiment: ITC
T2 sequence (looked up): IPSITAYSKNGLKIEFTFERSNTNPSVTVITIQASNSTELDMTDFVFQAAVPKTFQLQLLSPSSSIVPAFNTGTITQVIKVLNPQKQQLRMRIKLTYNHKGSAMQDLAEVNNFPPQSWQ

stoichiometry N [1]: 2 appendage domains per epsinR N3
stoichiometry N [2]: 2 appendage domains per epsinR N3
B1: epsinR N3 construct (291–426), GST cleaved (domain or fragment, human, UniProt Q14677 291-426, looked up)
chain: AHYTGDKASPDQNASTHTPQSSVKTSVPSSKSSGDLVDLFDGTSQSTGGSADLFGGFADFGSAAASGSFPSQVTATSGNGDFGDWSAFNQAPSGPVASSGEFFGSASQPAVELVSGSQSALGPPPAASNSSDLFDL

— paper PMC2172650 (The Journal of Cell Biology, 2003)
